# Experimental data taken from US20080215402A1, “Methods and Systems for Evaluating Interaction of Medical Products and Dependence on Demographic Variables” (priority 2005, published 2008).
# Where two headings read alike, the source gives them in different places. Marks after values point to notes of the source that are not given here.
# Legend:
# [1] = two-way interaction analysis of AERS records, Infliximab and Methotrexate with pulmonary fibrosis; set-up: species or system patients; conditions: records listing both drugs vs 100 random samples of each reference population; FIG. 6
# Source text: In the following description, let N denote the size of the first subset listed above—i.e., the total number of records in the available database listing both drugs. The interaction analysis considered here begins by computing NX, the number of times that Reaction X appears in this first record subset, and the objective of the analysis is to provide reference numbers to answer the following questions:
# Each of these questions defines a collection of random reference sets that may be used to provide answers. Specifically, M random samples, each of size N, are drawn from the reference population defined by each of these questions (i.e., Drug A alone, Drug B alone, and neither drug), and the number of records in each random sample that also lists Reaction X is recorded.
# [2] = human
# [3] = orthogonalized contingency lattice analysis of AERS reports, reference condition rhabdomyolysis; conditions: for Z (z-score, rhabdomyolysis vs non-rhabdomyolysis randomized datasets): * = significant at Bonferroni-corrected 5% level (|z| > 12); for Nrhabdo (subset size based on the rhabdomyolysis dataset): records listing the drug(s) and excluding the other drugs, NR=11,773
# Procedure: As a consequence, it should be noted that all of these subsets are mutually exclusive, with no patient appearing in more than one subset.
# The results obtained from the orthogonalized contingency lattice just described are analyzed exactly as in the case of the basic contingency lattice described previously.
# As before, significance is assessed using the Bonferroni-corrected z-score analysis described earlier herein. The primary difference between the results obtained with the original contingency lattice construction and those obtained with the orthogonalized construction lies in the fact that the orthogonalized patient subsets are mutually exclusive.
# [4] = N=898 tuberculosis patients vs 200 random samples; Bonferroni-corrected 5% threshold; FIG. 7
# [5] = reaction: antinuclear antibody positive
# [6] = reaction: crohn's disease aggravated
# [7] = reaction: disseminated tuberculosis
# [8] = reaction: dna antibody nos positive
# [9] = reaction: drug withdrawal syndrome
# [10] = reaction: infusion related reaction
# [11] = reaction: pharmaceutical product complaint
# [12] = reaction: pneumocystis carinii pneumonia
# [13] = reaction: pulmonary tuberculosis
# [14] = reaction: rheumatoid arthritis aggravated
# [15] = reaction: systemic lupus erythematosus
compound,measurement,setting,value
"CN(Cc1cnc2nc(N)nc(N)c2n1)c1ccc(C(=O)N[C@@H](CCC(=O)O)C(=O)O)cc1 [Methotrexate, methotrexate]",drug interaction with respect to pulmonary fibrosis (in words),[1],responsible for the large number of cases seen when both drugs are present
"Cc1ccc(C)c(OCCCC(C)(C)C(=O)O)c1 [Case L, gemfibrozil]",Nref^+ (maximum subset size from the 200 randomly generated non-rhabdomyolysis datasets),[2],72
same,Nref^− (minimum subset size from the 200 randomly generated non-rhabdomyolysis datasets),[2],33
same,Nrhabdo (subset size based on the rhabdomyolysis dataset),[2],2982
same,PChebyshev (probability derived from the Chebyshev inequality),[2],6.16 × 10^−6
same,Nref^+ (maximum subset size from the 200 randomly generated non-rhabdomyolysis datasets),[3],55
same,Nref^− (minimum subset size from the 200 randomly generated non-rhabdomyolysis datasets),[3],21
same,PChebyshev (probability derived from the Chebyshev inequality),[3],5.36 × 10^−4
same,association with rhabdomyolysis (in words),[3],only weak evidence
same,"Z (z-score, rhabdomyolysis vs non-rhabdomyolysis randomized datasets)",[3]; listed as L BP,43*
same,"Z (z-score, rhabdomyolysis vs non-rhabdomyolysis randomized datasets)",[3]; listed as Lopid,43
same,Nrhabdo (subset size based on the rhabdomyolysis dataset),[3],306
"COC(=O)[C@H](c1ccccc1Cl)N1CCc2sccc2C1 [Case P, clopidogrel bisulfate]",Nref^+ (maximum subset size from the 200 randomly generated non-rhabdomyolysis datasets),[2],177
same,Nref^− (minimum subset size from the 200 randomly generated non-rhabdomyolysis datasets),[2],114
same,Nrhabdo (subset size based on the rhabdomyolysis dataset),[2],465
same,PChebyshev (probability derived from the Chebyshev inequality),[2],1.43 × 10^−3
same,association with rhabdomyolysis (in words),[2],significant at the Bonferroni-corrected 5%
same,"z (z-score, rhabdomyolysis vs non-rhabdomyolysis datasets)",[2],26*
same,Nref^+ (maximum subset size from the 200 randomly generated non-rhabdomyolysis datasets),[3],169
same,Nref^− (minimum subset size from the 200 randomly generated non-rhabdomyolysis datasets),[3],109
same,PChebyshev (probability derived from the Chebyshev inequality),[3],2.20 × 10^−1
same,"Z (z-score, rhabdomyolysis vs non-rhabdomyolysis randomized datasets)",[3],2
same,Nrhabdo (subset size based on the rhabdomyolysis dataset),[3],163
infliximab,number of adverse events that exceed the Bonferroni-corrected 5% significance threshold,AERS,365
same,Uab,designation: bone & joint tuberculosis,1.09 × 10^5
same,Uab,designation: bone amp joint tuberculosis,1.34 × 10^6
same,Uab,designation: disseminated tuberculosis,6.22 × 10^117
same,Uab,designation: lymph node tuberculosis,1.57 × 10^8
same,Uab,designation: lymph node tuberculosis nos,4.98 × 10^15
same,Uab,designation: peritoneal tuberculosis,8.61 × 10^9
same,Uab,designation: pulmonary tuberculosis,1.11 × 10^109
same,Uab,designation: spleen tuberculosis,1.47 × 10^12
same,Uab,designation: tuberculosis,1.18 × 10^74
same,Uab,designation: tuberculosis gastrointestinal nos,2.85 × 10^10
same,Uab,designation: tuberculosis nos,>10^308
same,Uab,designation: tuberculosis reactivated,3.40 × 10^6
same,NAB,[5],65
same,RAB,[5],12.93
same,log10 UAB (Statistical Unexpectedness),[5],51.53
same,NAB,reaction: basal cell carcinoma,88
same,RAB,reaction: basal cell carcinoma,21.17
same,log10 UAB (Statistical Unexpectedness),reaction: basal cell carcinoma,92.07
same,NAB,reaction: crohn's disease,60
same,RAB,reaction: crohn's disease,11.26
same,log10 UAB (Statistical Unexpectedness),reaction: crohn's disease,43.74
same,NAB,[6],45
same,RAB,[6],22.02
same,log10 UAB (Statistical Unexpectedness),[6],48.51
same,NAB,[7],93
same,RAB,[7],30.00
same,log10 UAB (Statistical Unexpectedness),[7],117.79
same,NAB,[8],59
same,RAB,[8],24.01
same,log10 UAB (Statistical Unexpectedness),[8],66.39
same,NAB,[9],2
same,RAB,[9],0.02
same,log10 UAB (Statistical Unexpectedness),[9],44.68
same,NAB,reaction: flushing,254
same,RAB,reaction: flushing,4.37
same,log10 UAB (Statistical Unexpectedness),reaction: flushing,83.41
same,NAB,[10],63
same,RAB,[10],19.32
same,log10 UAB (Statistical Unexpectedness),[10],62.93
same,NAB,reaction: listeriosis,41
same,RAB,reaction: listeriosis,30.26
same,log10 UAB (Statistical Unexpectedness),reaction: listeriosis,52.60
same,NAB,reaction: lupus-like syndrome,179
same,RAB,reaction: lupus-like syndrome,27.45
same,log10 UAB (Statistical Unexpectedness),reaction: lupus-like syndrome,215.11
same,NAB,reaction: medication error,17
same,RAB,reaction: medication error,0.07
same,log10 UAB (Statistical Unexpectedness),reaction: medication error,75.78
same,NAB,[11],6
same,RAB,[11],0.05
same,log10 UAB (Statistical Unexpectedness),[11],41.69
same,NAB,[12],66
same,RAB,[12],9.58
same,log10 UAB (Statistical Unexpectedness),[12],43.17
same,NAB,reaction: pneumonia nos,369
same,RAB,reaction: pneumonia nos,2.92
same,log10 UAB (Statistical Unexpectedness),reaction: pneumonia nos,71.42
same,NAB,[13],99
same,RAB,[13],23.31
same,log10 UAB (Statistical Unexpectedness),[13],109.04
same,NAB,reaction: pyrexia,596
same,RAB,reaction: pyrexia,1.80
same,log10 UAB (Statistical Unexpectedness),reaction: pyrexia,41.44
same,RAB,reaction: rhabdomyolysis,0.08
same,log10 UAB (Statistical Unexpectedness),reaction: rhabdomyolysis,58.33
same,NAB,[14],60
same,RAB,[14],12.27
same,log10 UAB (Statistical Unexpectedness),[14],46.14
same,NAB,reaction: rigors,252
same,RAB,reaction: rigors,2.65
same,log10 UAB (Statistical Unexpectedness),reaction: rigors,41.86
same,NAB,reaction: sepsis nos,268
same,RAB,reaction: sepsis nos,3.28
same,log10 UAB (Statistical Unexpectedness),reaction: sepsis nos,61.87
same,NAB,[15],192
same,RAB,[15],11.24
same,log10 UAB (Statistical Unexpectedness),[15],137.84
same,NAB,reaction: tuberculosis,64
same,RAB,reaction: tuberculosis,25.34
same,log10 UAB (Statistical Unexpectedness),reaction: tuberculosis,74.07
same,NAB,reaction: tuberculosis nos,275
same,RAB,reaction: tuberculosis nos,29.00
same,log10 UAB (Statistical Unexpectedness),reaction: tuberculosis nos,>308.00
same,association with tuberculosis by orthogonalized lattice analysis (in words),[4],only strong positive association with tuberculosis
